Biological target: Chicken CapZ complex, full length α/β (chicken) (UniProt P13127)
Test: ITC

Substance: RavB, full length, untagged (RavB^WT) (natural protein)
- Kd: 0.0108 µM
